This note sets out measurements from patent publication US20080220446A1, “Method for Detecting and/or Removing Protein and/or Peptide Comprising a Cross-Beta Structure From an Aqueous Solution Comprising a Protein” (priority 2005, published 2008).

In series [1] the target is T1, fibronectin F4,5 (Homo sapiens, UniProt P02751).
T1 construct: human fibronectin finger 4,5 (Fn F4,5) fragment; made in house; host or cells: HEK293E
Kind of series: Affinity determination ELISA, fibronectin F4,5 on coated (mis)folded proteins. To be noted: coated protein as labelled. Type of series: binding. The source says:
(§1) Synthetic genes of human BiP, human fibronectin finger 4,5 (Fn F4,5) fragment, and human tissue-type plasminogen activator finger EGF (tPA F-EGF) fragment were ordered from Geneart (Regensburg, Germany). These DNA constructs were digested using BamHI and NotI, and ligated into vector pABC674 (ABC-expression facility, Utrecht University, The Netherlands), which contains a carboxy-terminal FLAG-tag—His-tag. HEK293E cells were transiently transfected with these constructs using the polyethylene-imine method, and grown for 5-6 days.
(§2) Denatured proteins and their native controls BSA (Sigma, A7906), glycated BSA, Hb (Sigma, H7605), glycated Hb, ovalbumin (Sigma, A6741), heat-denatured misfolded ovalbumin, human γ-globulins (Sigma, G4386), heat-denatured misfolded γ-globulins, alkyl-γ-globulins, lysozyme (ICN Biochemicals, 100831) and alkyl-lysozyme were coated on ELISA plates (Greiner Microlon high-binding, 655092) in 50 mM NaHCO3-buffer pH 9.6. The plates were blocked using Blocking reagent (Roche 1112589). […] Bound protein is detected by the FLAG-tag using 1:3000 anti-FLAG-HRP (Sigma A-8592) in PBS-T, or by 1:1000 Ni-NTA-HRP (Qiagen 34530) in PBS-T. The HRP reaction Is performed using the TMB substrate (Biosource 4501103 or Tebu Bio 101TMB100-500), stopped using 10% H2SO4 and absorbance was measured at 450 nm.

Series [2] deals with T2, tPA F-EGF (Homo sapiens, UniProt P00750).
T2 construct: made in house; host or cells: HEK293E
T2 sequence (P00750 36-120 limits assumed): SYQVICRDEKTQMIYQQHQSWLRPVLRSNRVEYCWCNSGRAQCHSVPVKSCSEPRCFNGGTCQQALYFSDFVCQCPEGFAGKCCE
Put plainly: Affinity determination ELISA, tPA F-EGF on coated (mis)folded proteins. Conditions: coated protein as labelled, relative to native control. Type of series: binding.
Source text: as §1, §2
On the technique in general: An ELISA detects its analyte on a solid surface through an enzyme-linked reagent.

The nature of series [3]: Thioflavin T fluorescence of protein solutions. The class given is physicochemical. The protocol: Fluorescence of ThT—protein/peptide adducts was measured as follows. […] Fluorescence was measured at 485 nm upon excitation at 435 nm. Background signals from buffer, buffer with ThT and protein/peptide solution without ThT were subtracted from corresponding measurements with protein solution incubated with ThT. Regularly, fluorescence of Aβ was used as a positive control, and fluorescence of FP10, a non-amyloid fibrin fragment^16, was used as a negative control. Fluorescence was measured in triplicate on a Hitachi F-4500 fluorescence spectrophotometer (Ltd., Tokyo, Japan).
Formulated protein therapeutics were obtained from the local hospital pharmacy and were used as supplied by the manufacturers. […] Lyophilized therapeutics were dissolved according to the manufacturers recommendations. GH, zinc-insulin, Cealb and gelatin were stored at −20, 4, room temperature, 37 and 65° C. Other protein therapeutics were only kept at 4° C., and assayed for the presence of cross-β structure at shown time points. Enhancement in fluorescence of ThT and Congo red was measured with all formulated protein therapeutics. […]
ThT fluorescence of β2GPI was measured as follows. […] In the ThT fluorescence assay, fluorescence of β2GPI in buffer, of CL or DXS500k in buffer, of buffer and ThT alone, and of β2GPI-CL adducts and β2GPI-DXS500k adducts, with or without ThT, was recorded as described above (section ThT fluorescence). In addition, TEM images were recorded with CL, β2GPI from human plasma, with or without CL, and with recombinant β2GPI, as described^5.
(§3) To prepare structurally altered ovalbumin (OVA) with amyloid cross-β structures, purified OVA (Sigma, A-7641, lot 071k7094) was heated to 85° C. […] Native OVA (nOVA) and heat-denatured OVA (dOVA) were tested in the ThT fluorescence assay and in the Plg-activation assay. In the fluorescence assay and in the Plg-activation assay, 25 and 100 μg ml^−1 nOVA and dOVA were tested, respectively. […]
MSA (#126674, Calbiochem) was dissolved in 8 M urea, 100 mM Tris-HCl pH 8.2, at 10 mg ml^−1 final concentration. […] The presence of aggregates or fibrils was analyzed using TEM. […]

The target of series [4] is T3, tPA (Homo sapiens, UniProt P00750). Put plainly: ELISA, binding of β2GPI to immobilized tPA. The method, then: (§4) Binding of purified human factor XII from plasma (Calbiochem) or of purified recombinant human tPA to β2GPI purified from human plasma, or to recombinant human β2GPI was tested in an ELISA. Ten μg of factor XII or tPA in PBS was coated onto wells of a Costar 2595 ELISA plate (Cambridge, USA) and incubated with concentration series of the two β2GPI preparations. Binding of β2GPI was assessed with monoclonal antibody 2B2^22.
T3 sequence (P00750 36-562): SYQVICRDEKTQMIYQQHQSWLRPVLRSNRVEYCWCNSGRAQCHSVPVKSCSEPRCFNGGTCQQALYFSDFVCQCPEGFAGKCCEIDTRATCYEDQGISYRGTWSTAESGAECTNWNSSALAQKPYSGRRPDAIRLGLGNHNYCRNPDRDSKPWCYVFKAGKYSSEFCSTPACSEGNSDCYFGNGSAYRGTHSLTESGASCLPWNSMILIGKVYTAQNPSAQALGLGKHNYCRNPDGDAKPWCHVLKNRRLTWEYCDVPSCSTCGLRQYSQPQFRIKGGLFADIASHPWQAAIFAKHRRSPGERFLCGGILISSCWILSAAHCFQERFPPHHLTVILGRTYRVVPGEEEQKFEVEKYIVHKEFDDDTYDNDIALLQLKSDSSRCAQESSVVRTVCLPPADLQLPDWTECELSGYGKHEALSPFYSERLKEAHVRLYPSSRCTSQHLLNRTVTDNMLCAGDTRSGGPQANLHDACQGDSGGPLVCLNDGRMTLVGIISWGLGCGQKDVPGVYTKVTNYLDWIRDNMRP

The target of series [5] is T3, tPA. Kind of series: Plasminogen-activation assay (tPA activation, S-2251). The class given is biochemical. Conditions: β2GPI preparations, 100 μg ml^−1. The method, then:
Plasmin (Pls) activity was assayed as described^16. Peptides and proteins that were tested for their stimulatory ability were regularly used at 100 μg ml^−1. […] Chromogenic substrate S-2251 (Chromogenix, Instrumentation Laboratory SpA, Milano, Italy) was used to measure Pls activity. Conversion of zymogen factor XII (#233490, Calbiochem, EMD Biosciences, Inc., San Diego, Calif.) to proteolytically active factor XII (factor XIIa) was assayed by measurement of the conversion of chromogenic substrate Chromozym-PK (Roche Diagnostics, Almere, The Netherlands) by kallikrein. Chromozym-PK was used at a concentration of 0.3 mM. […] The conversion of Chromozym-PK was recorded kinetically at 37° C. for at least 60 minutes. […]
Formulated protein therapeutics were obtained from the local hospital pharmacy and were used as supplied by the manufacturers. […] Enhancement in fluorescence of ThT and Congo red was measured with all formulated protein therapeutics. […]
as §3

Series [6] addresses T4, factor XII (Homo sapiens, UniProt P00748).
T4 construct: purified human factor XII from plasma (Calbiochem); purchased Calbiochem; host or cells: human plasma
T4 sequence (P00748 20-615): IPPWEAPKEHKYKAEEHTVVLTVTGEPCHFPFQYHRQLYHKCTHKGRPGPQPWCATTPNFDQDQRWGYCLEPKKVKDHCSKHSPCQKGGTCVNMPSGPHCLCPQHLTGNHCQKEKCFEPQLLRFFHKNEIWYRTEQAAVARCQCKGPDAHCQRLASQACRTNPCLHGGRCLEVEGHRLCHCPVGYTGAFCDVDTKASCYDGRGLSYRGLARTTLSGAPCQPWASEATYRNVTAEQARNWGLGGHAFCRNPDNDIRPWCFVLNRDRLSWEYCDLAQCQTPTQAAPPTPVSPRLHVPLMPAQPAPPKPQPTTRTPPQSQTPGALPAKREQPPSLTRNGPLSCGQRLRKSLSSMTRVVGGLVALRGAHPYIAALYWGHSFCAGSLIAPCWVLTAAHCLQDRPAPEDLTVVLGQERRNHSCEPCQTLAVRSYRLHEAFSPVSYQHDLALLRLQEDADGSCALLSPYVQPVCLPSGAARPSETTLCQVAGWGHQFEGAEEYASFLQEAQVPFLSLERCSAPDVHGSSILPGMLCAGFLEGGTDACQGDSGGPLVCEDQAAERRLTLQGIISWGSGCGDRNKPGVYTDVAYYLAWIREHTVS
Kind of series: ELISA, binding of β2GPI to immobilized factor XII. The protocol:
as §4

The target in series [7] is T3, tPA. Kind of series: tPA/plasminogen activation assay. The class given is biochemical. To be noted: β2gpi exposed to cardiolipin or alkylated, 100 μg/ml. The method, then: β2-GPI was reduced and alkylated as follows. Sixhundredforty μl of β2-GPI stock was mixed with 640 μl of 8 M Urea (cooled solution) in 0.1 M Tris pH-8.2. The solution was degassed with N2 gas for approximately 6 minutes. From a 1 M DTT stock 12.8 μl was added to the solution, mixed and incubated for 3 hours at room temperature. A 1 M Iodoacetamide (Sigma; I-6125) was prepared, of which 25.6 μl was added to the β2-GPI reaction mixture. The solution was subsequently dialysed against PBS. […] Signals obtained with alkyl-β2gpi are compared with those obtained with native β2gpi starting material and with positive control acid/heat denatured amyloid-like misfolded γ-globulins.
Exiqon Peptide Immobilizer plates were blocked for 1 hour with PBS, 1% Tween20 and rinsed twice with distilled water. The conversion of the chromogenic substrate S-2251 (Chromogenix, Italy) by plasmin was kinetically measured at 37° C. on a Spectramax340 microplate reader at a wavelength of 405 nm. […] Denatured γ-globulins (100 μg/ml) with amyloid-like structure was used as reference and positive control. Lyophilized γ-globulins (Sigma, Mo., USA) were dissolved in a 1(:)1 volume ratio of 1,1,1,3,3,3-hexafluoro-2-propanol and trifluoro-acetic acid and subsequently dried under air. […]
Protein therapeutics were obtained from the local hospital pharmacy and analyzed within the expiry limits as stated by the manufacturers.

T1 sequence (P02751 182-276 limits assumed): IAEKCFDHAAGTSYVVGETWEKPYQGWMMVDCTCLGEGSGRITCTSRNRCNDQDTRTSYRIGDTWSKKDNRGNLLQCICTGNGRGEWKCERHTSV

B1: heat-denatured OVA: ovalbumin heated to 85° C. (protein)
chain: GSIGAASMEFCFDVFKELKVHHANENIFYCPIAIMSALAMVYLGAKDSTRTQINKVVRFDKLPGFGDSIEAQCGTSVNVHSSLRDILNQITKPNDVYSFSLASRLYAEERYPILPEYLQCVKELYRGGLEPINFQTAADQARELINSWVESQTNGIIRNVLQPSSVDSQTAMVLVNAIVFKGLWEKAFKDEDTQAMPFRVTEQESKPVQMMYQIGLFRVASMASEKMKILELPFASGTMSMLVLLPDEVSGLEQLESIINFEKLTEWTSSNVMEERKIKVYLPRMKMEEKYNLTSVLMAMGITDVFSSSANLSGISSAESLKISQAVHAAHAEINEAGREVVGSAEAGVDAASVSEEFRADHPFLFCIKHIATNAVLFFGRCVSP
Regarding B1, the “affinity for fibronectin F4,5” value in series [1] is “clear difference in binding affinity”. Further, the “binding of tPA F-EGF” value in series [2] is recorded as “Much lower binding”. Moreover, in series [3] (conclusion from ThT fluorescence, Plg-activation assay and TEM), the “presence of cross-β structure conformation” value is “comprise the cross-β structure conformation”.

B2: β2GPI purified from fresh plasma: β2-glycoprotein I purified from fresh human plasma (protein)
chain: GRTCPKPDDLPFSTVVPLKTFYEPGEEITYSCKPGYVSRGGMRKFICPLTGLWPINTLKCTPRVCPFAGILENGAVRYTTFEYPNTISFSCNTGFYLNGADSAKCTEEGKWSPELPVCAPIICPPPSIPTFATLRVYKPSAGNNSLYRDTAVFECLPQHAMFGNDTITCTTHGNWTKLPECREVKCPFPSRPDNGFVNYPAKPTLYYKDKATFGCHDGYSLDGPEEIECTKLGNWSAMPSCKASCKVPVKKATVVYQGERVKIQEKFKNGMLHGDKVSFFCKNKEKKCSYTEDAQCIDGTIEVPKCFKEHSSLAFWKTDASDVKPC
With B2, the “binding to tPA” value in series [4] (listed as β2GPI purified from fresh human plasma) is “not”; in series [4] (listed as β2GPI purified from plasma) it was “does not bind”. The “stimulation of tPA-mediated conversion of Plg to Pls” value in series [5] is reported as “not”. In series [6], the “binding to factor XII” value is “not”. Also, in series [3] (after exposure to CL or DXS500k), the ThT fluorescence signal result is given as “increased ThT fluorescence signal”.

B3: CL-β2gpi: β2gpi exposed to cardiolipin (protein)
chain: B2 chain
For the molecule B3, the “ability to activate tPA/plasminogen” value in series [7] is listed as “accelerated”.
